Data on two substances can be found in paper PMC12628836.

Assay in all cases: ELISA; attachment factors coated at 280.0 pmol/mL in carbonate-bicarbonate buffer overnight at 4 C, blocked with 1.0% BSA; P protein (GI.1 or GII.4) 10.0 ug/mL, 1 h at 37 C; detected with anti-HuNoV monoclonal antibodies; positive when S/N >= 2.0
On the technique in general: In an ELISA, binding on a coated surface is turned into a signal by an enzyme label.

Assay [1] has as its target recombinant oyster heat shock protein 70 (oyster).
In assay [2] the target is recombinant C2K0J4 (Penicillin-binding protein, transpeptidase domain protein) (Lactobacillus rhamnosus YQ001).
Assay [3] addresses recombinant C2JX39 (DNA topoisomerase 4 subunit A) (Lactobacillus rhamnosus YQ001).
The target in assay [4] is recombinant C2JVE6 (ATP-dependent zinc metalloprotease) (Lactobacillus rhamnosus YQ001).

Sequence of GI.1 HuNoV P protein (domain or fragment) (Q83884 226-530 limits assumed): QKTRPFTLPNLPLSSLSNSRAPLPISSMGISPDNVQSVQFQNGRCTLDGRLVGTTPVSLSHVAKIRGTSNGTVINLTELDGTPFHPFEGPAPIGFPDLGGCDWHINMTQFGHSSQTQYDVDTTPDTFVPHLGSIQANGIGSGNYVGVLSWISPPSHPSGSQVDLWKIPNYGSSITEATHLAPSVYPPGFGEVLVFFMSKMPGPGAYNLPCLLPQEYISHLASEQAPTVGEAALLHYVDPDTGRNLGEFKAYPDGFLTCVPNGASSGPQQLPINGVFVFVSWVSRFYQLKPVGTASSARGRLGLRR

Take “GI.1 HuNoV P protein (domain or fragment)”: the S/N ratio worked out at 15.5 in assay [1], 16.4 in assay [2], 16.4 in assay [3] and 16.6 in assay [4].

Turning to “GII.4 HuNoV P protein (domain or fragment)”, the S/N ratio in assay [1] is 16; in assay [2], 17.3; in assay [4], 16.7.
